± gives the standard deviation of the averaged measurements.
Experiments:
[1] = purified protein yield per well (BCA); higher = higher soluble expression
Summary of the method: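 Expression was done in E. coli C41(DE3), using 2 mL autoinduction cultures with 100 µg/mL kanamycin incubated at 37 °C for 2 h and at 18 °C for 40 h. Protein was purified on Ni-charged magnetic beads and released by SUMO protease cleavage. Yield of purified protein per well was measured with the Pierce Rapid Gold BCA kit; values below 25 ug (0.1 mg/mL) are below detection.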

[2] = PET hydrolysis, aromatic products released after 48 h (umol product/mg enzyme); higher = more PET depolymerization activity
Protocol: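 HTP-purified, SUMO-cleaved, tagless PET hydrolase candidates (5 ug, 1.43 mg/g PET) were incubated 48 h without shaking with 3.5 mg amorphous PET film (aFilm) or crystalline PET powder (cryPow) in 0.5 mL buffer: NaCitrate pH 4.5/5.5, NaPhosphate pH 6.5/7.5, glycine pH 8.5. Incubation was at 40 or 60 C. Aromatic products (TPA, MHET, BHET) in the supernatant were quantified by UV absorbance at 260/280 nm relative to buffer blanks and expressed per mg enzyme. LCC-ICCG was the positive control on every plate.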

[3] = melting temperature (DSF); higher = more thermostable
Protocol: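 Candidate PET hydrolases were expressed in E. coli C41(DE3) in 2 mL autoinduction cultures in 24-deep-well plates, Ni-bead purified and released by SUMO protease cleavage on an OT-2 robot. Yield per well was measured by BCA; values below 25 ug (0.1 mg/mL) are below the detection threshold. Melting temperature was measured by differential scanning fluorimetry with Sypro Orange, ramping from 25 C at 0.3 C/step.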

[4] = substrate: aFilm, 40 °C, pH 4.5
[5] = substrate: aFilm, 40 °C, pH 5.5
[6] = substrate: aFilm, 40 °C, pH 6.5
[7] = substrate: aFilm, 40 °C, pH 7.5
[8] = substrate: aFilm, 60 °C, pH 4.5
[9] = substrate: aFilm, 60 °C, pH 5.5
[10] = substrate: aFilm, 60 °C, pH 6.5
[11] = substrate: aFilm, 60 °C, pH 7.5
[12] = substrate: cryPow, 40 °C, pH 4.5
[13] = substrate: cryPow, 40 °C, pH 5.5
[14] = substrate: cryPow, 40 °C, pH 6.5
[15] = substrate: cryPow, 40 °C, pH 7.5
[16] = substrate: cryPow, 60 °C, pH 4.5
[17] = substrate: cryPow, 60 °C, pH 5.5
[18] = substrate: cryPow, 60 °C, pH 6.5
[19] = substrate: cryPow, 60 °C, pH 7.5
[20] = substrate: cryPow, 40 °C, pH 8.5

Sequence	purified protein yield per well [1] [µg]	PET hydrolysis [2, 4]	PET hydrolysis [2, 5]	PET hydrolysis [2, 6]	PET hydrolysis [2, 7]	PET hydrolysis [2, 8]	PET hydrolysis [2, 9]	PET hydrolysis [2, 10]	PET hydrolysis [2, 11]	PET hydrolysis [2, 12]	PET hydrolysis [2, 13]	PET hydrolysis [2, 14]	PET hydrolysis [2, 15]	PET hydrolysis [2, 16]	PET hydrolysis [2, 17]	PET hydrolysis [2, 18]	PET hydrolysis [2, 19]	melting temperature [3] [C]	PET hydrolysis [2, 20]
ADNPYQRGPDPTRASVASENGPFANTSVAVPTGYGFNGGRIYYPTDTSQGTFGAIAISPGYTALFSVELAWMGPWLASHGFVVIGIETNSRNDFDTARGTQLLAALDYLTQQSPVRDRVDSSRLAVAGHSMGGGGALSAAMRRSSLKAAVGIAPYSPSSNLATDRVPTMVFSGQADTVVTPSYATGLYNSLPSTTESAYLEVAGADHGFMVGRSNPVLIRTMLPFLKIFIDNDARYSQFLCPLLDTSGVVTYRSTCPLLPTPPTSPTATPTTTPTGPSPTSPPGAASQLVGAQSGRCVDVPNASRANGTRVQLWDCNRQSNQSWTYTSTKQLRVYGDMCLDAAGTGNGAAVQIYGCHGQANQQWNVNSNGTVSNVQSGRCLDVWSTANGAQIQLYDCHGQTNQRFNLTPLA [TEP111]	245	< 3	< 3	< 3	< 3	< 3	< 3	< 3	< 3	13 ± 1.4	17	15.5 ± 9.2	8.5 ± 12	< 3	5	4.5 ± 0.71	< 3	63.1	
ADNPYQRGPDPTRASVAAVNGPFVNTSVSVPTGYGFNGGRIYYPTDTSQGTFGAIAISPGYTALFSAELAWMGPWLASHGFVVIGIETNSRNDFDTARGTQLLAALDYLTQQSPVRDRVDPNRLAVSGHSMGGGGALSAAIRRSSLKAAVGITPYSPSQNLANDRVPTMVISGQADTVVTPSYALGLYNSLPASTESVYLEVAGGDHGFMVGRSNPVLIRTMLPFLKMFVDNDSRYSQFLCPLLDSSGVVTYRSTCPLLPTNPTTPPPTGTPTPTPTSTPTPTPTPTTPPPSGSANE [ESM091]	336	< 3	< 3	< 3	< 3	< 3	< 3	< 3	< 3	13.5 ± 0.71	28 ± 1.4	10	< 3	< 3	< 3	< 3	< 3	62.5	
ADNPYQRGPDPTAASIAAVTGPFATASVTVPRGNGFGGGVIYYPTDTSQGTFGGIAISPGLNGTWPGIAWLGPRLASQGFVVFGIETNNLNDSPTSRGTQLLAALDYLTGSSSVRTRVDAGRLAVAGHSMGGGGALDAALRRPSLRATIGNAPHLPSGSLANDRVPTLIYAMQNDTLVPPSRLTSLYNTVPATTERGYLEITGAGHNYIGQPSTILARTMIPWLKIFVDDDARYSQFLCPLTDRSGISQYQSSCPLITTSPTTGPTAQPTTAAPTTTPTTPPVGGPCEATHRTVNSWSGGYQGEVTVRAGSAAINGWTVSWTLGSGQTINQVWGGALTASGTAATVRNETWNGPVAAGASTTFGYIATGNAPTQPLACSAR [ESM060]	279	< 3	< 3	1.5 ± 2.1	8 ± 1.4	< 3	< 3	< 3	< 3	< 3	11.5 ± 2.1	24.5 ± 2.1	38 ± 1.4	< 3	< 3	5.5 ± 0.71	12.5 ± 0.71	58.6	
ADNPHQRGPNPTQASVAASRGTFATSETSVGGGNGFGGAKIYYPTDTSQGKFAALAVSPGYTATWAAEGAWMGHWLASFGFVIIGIDTISRTDWDVARGDQLLAALDYLTQRSSVRDRVDASRVGVMGHSMGGGGAISAGLKRPSLKVVIGNAPYSASQNLTNMRVPVALLAGQRDTTVTPATTNSYYNQVPATTEKMYLELTNAPHSFPTSNNSVMTRKVIPWMKIFLDQDTRYQQFLCPLLDNTGIRTYRSSCPLIGDPMPPADTYRLAGAASGKCADVEGRSQANGAKLLLWTCNGQTNQRWTQTATGELRVYDNPKCVEAGTSAQGTRVTINACNGGNSQKWTVNANGTVTNAVSGRCLDAAGTADNSPIVVNTCTGAGSQNWSKRS [TEP049]	68.7									< 3	< 3	< 3	< 3	< 3	< 3	< 3	< 3	50.8	
ADNPYQRGPDPTRASVAAVNGPFANTSVSVPTGYGFNGGRIYYPTDTSQGTFGAIAISPGYTALFSAELAWMGPWLASHGFVVIGIETNSRNDFDTARGTQLLAALDYLTQQSPVRDRVDPNRLAVSGHSMGGGGALSAAIRRSSLKAAVGITPYSPSQNLANDRVPTMVISGQADTVVTPSYALNLYNSLPASTESVYLEVAGGDHGFMVGRSNPVLIRTMLPFLKMFVDNDSRYSQFLCPLLDSSGVVTYRSTCPLLPTDPTTPPTGSPTPTPTTPPPSGSANEIIGTQSGRCVDVPNASRNNGTRVQLYDCNKQTNQSWTYTSNRQLRVYDNMCLDAAGSGNGAAIQIYTCHSGTNQQWNVNSNGTITGVQSGRCLDVWSSNNGAQIQLYDCHGQPNQQFRLAPLA [TEP010]	269	< 3	< 3	< 3	< 3	< 3	< 3	< 3	< 3	13.5 ± 2.1	24	41 ± 1.4	27 ± 4.2	< 3	6 ± 1.4	5 ± 1.4	2 ± 2.8	62.8	
AADNPYQRGPDPTPASVSANRGTFATTQVAVAAGNGFGGGVIYYPTDTSQGQFGAIAVVPGYTATWAAEGAWMGHWLASFGFVVIGIDTNNRNDWDTARGTQLLAALDYLTQRSSVRDRVDATRTAVMGHSMGGGGAASASLQRPSLKASIGLAPASFSQNLTTTRVPTMLLSGQNDTTITPASVVNLYNGIPASVEKAYLELSGAGHGFPTSNNSTMMRNVIPWFKVFVDSDTRYTQFLCPLANWSGIRTYQSTCPLVPSTPPTSTTTSTTTSTTTSTTTTTTPQPVGACNATYRTTNSWPGGYQGEVTVTAGESGVNGWTTRWTLGSGQTVTQVWNGTLTVDGSTASVRNAAYNGSLPAGGSAAFGFIGGGTPPTSLTCTSP [ESM023]	221									< 3	< 3	< 3	5	< 3	< 3	< 3	< 3	55	
ATYERGPAPTAQSIVADGPFSYATVAVPTQSSFGGGTIYYPTDTNQGTFGAVAVIPGFVGSLDNVAWIGSRLASHGFVVFTVATTNPFAFPGDRAAQLQAALTYLTQSSSVRDRVDPNRLAVAGHSMGGGGALEAVRNNPALKAAVALQPWDFGQNFSAIAVPSMIVGAQNDQVATVTSHSEPFYDQIPAGAEKAYLELAGAGHDAGQSVSNATQAGSMLSWLKRYVDEDTRYEQFLCPAPSGPSVAEYRDTCPA [DP045]	37										< 3	< 3	< 3					45.7	< 3
AANPYERGPAPTAASIAATTGPFAVASVSVPRGNGFGGGVIYYPTSTSQGTFGGVAISPGLNGTWAGIAWLGPRLASQGFVIFGIETNNLNDSPASRGTQLLAALDFLTRSSSVRTRVDASRLAVAGHSMGGGGALSAALQRPSLQAAIGNAPHLPSGSLATDRVPTLIYAMQNDTLVTPSRLTSLYNSMPATTERAYIEVAGAGHNYIGQPSTTLARTMIPWLKIFVDNDARYSQFLCPLSNQSGISQYRNSCPLISTTTLSTGVDSTSGLAVR [ESM157]	313	< 3	< 3	< 3	< 3	< 3	< 3	< 3	< 3	< 3	17.5 ± 2.1	50	69.5 ± 3.5	< 3	3	7.5 ± 0.71	14.5 ± 0.71	61	
GRVMAASDSGTAADERVYAEPSVDPASVGSAGRNPYERGPEPTLASVAAEYGPFDTDQLTVPPGHGFNGGYIYYPTDTSQTFGAVAIVPGYTALFADEEAWMGPRLASFGFVVIGIETNSRDDWDIARGEQLLAALDYLVHHSPVRARIDANRLAVVGHSMGGGGALFAATQRPSLKAVVALAPYFPSGSLAAIRVPTMIIGGQDDTVVTPSYLDDLYASRPAHTPGAYLMLADADHLFATRPNTVEMRLLIPWLKIFVDHDTRYTQFLCPVADRSGIARHHVT [TEP126]	166									< 3	< 3	< 3	< 3	< 3	< 3	< 3	< 3	55.9	
APNAAIAAAPRVAPAANPYERGPAPTEESVKAEKGPFDIAQMPVPGGAGVFGGGTIWYPKDEAGPFGAVVVSPGFMTLEPLIQWYGRTLASHGFVVMTMATITPIDPPFSRGDELRSALDYLVTKSTVKDKIDPTRTALMGHSMGGGGTLDAASKLPDLKAAIPLAPWNLDYAPPAKIKAPTLIIGADNDPIAPTAAFADPFYAALTTQNRAYLKLKNAGHTFSFLGYNPTITKYTVSWLKRFVDNDTRYDQFLCPIPAASDTVAAYQGTCPLT [DP091]	32										< 3	< 3	< 3					53.8	< 3

From the supplement of paper PMC12455559
